Experimental data: the supplement of paper PMC9170038

Tests used:
MS2 coat protein [1] = test: apparent KD of MS2 coat protein, switch ON state; designed switch direction (-1 OFF switch, 1 ON switch): -1; higher = weaker reporter binding; conditions: FMN input: 0 or 200 uM; Eterna round: R93 (includes R88 designs)
In short: (§1)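 Apparent KD per design is the median of normalised cluster binding-curve fits. Designed RNA switches transcribed on-chip from Illumina sequencing clusters were titrated with SNAP-549-labelled MS2 coat protein in twofold steps from 0.7 or 1.5 nM to 3 µM, with 0.8–1.5 h down to 10–20 min per step. Buffer: 100 mM Tris-HCl pH 7.5, 80 mM KCl, 4 mM MgCl2, without or with constant ligand.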

MS2 coat protein [2] = test: apparent KD of MS2 coat protein, switch OFF state (with FMN for OFF switches, without FMN for ON switches); designed switch direction (-1 OFF switch, 1 ON switch): -1; higher = weaker reporter binding; conditions: FMN input: 0 or 200 uM; Eterna round: R93 (includes R88 designs)
In short: as §1

Sequence | apparent KD of MS2 coat protein (MS2 coat protein [1]) | apparent KD of MS2 coat protein (MS2 coat protein [2])
AAAAAGUGAGGAUAUGCGCUGUCAAGUAGACACGAGCAGUCGUAGAAGGCACAUGAGGAUCACCCAUGUUUAAA [EX4 Malc#23] | 28.5 nM | 19.4 nM
AAAAAACAUGAGGAUCACCCAUGUAAGGAUAUGCUGAAAAACACGGAAAAAACGUGCAGCAGAAGGUACAAAAG [Mat - Exclusion 1 - Eli mod - D90] | 16.1 nM | 33.9 nM
AGGAAACAUGAGGAUCACCCAUGUUAGGAUAUGAACGAAAAUAAAUAAAAAUAAAAGUUCAGAAGGAACAAAAA [66%, Wbt, 18] | 27 nM | 41.9 nM
AAAAUGUCAGGAUAUGCGAAGGCGUCUGAUAGACGAGGCUAGCAGAAGGGACAUGAGGAUCACCCAUGUAAAAA [Power strip] | 82.2 nM | 179 nM
AGCUAGUCAGGAUAUACAAAAAUGCUAGAAGACGUAAGGGAACAUGAGGAUCACCCAUGUAGAAGGGACUAGCA [Diamond 45] | 37.2 nM | 58.3 nM
AAAAAGGAAGGAUAUACGAACAUGUCGAAAGACGUGAAGGGACAUGAGGAUCACCCAUGUAGAAGGUCCAAAAA [Mat - Exclusion 2 - JL mod - D79] | 47.2 nM | 45.8 nM
AAAUUGUCAGGAUAUCUGGAUAGGAAAAAGAAAACCUAUCCAGAGAAGGGACAUGAGGAUCACCCAUGUAAAAA [JL cataway mod 1] | 81.1 nM | 107 nM
GAUCCACAUGAGGAUCACCCAUGUAAGGAUAUUUAAAACCGGAGACAACCCUCCGAAGAAAGAAGGUACAAAAC [Ququraes] | 13 nM | 12.6 nM
AAGAAGUCAGGAUAUCGAAGACUGUCGAAAAGACAGUCGAACGAGAAGGGACAUGAGGAUCACCCAUGUGGAAG [Mat - Exaclusion 4 - Eli mod - D72] | 99.2 nM | 321 nM
AAAAAUGCAGGAUAUACGAACAUGUCGAAAGACGUGAAGGGACAUGAGGAUCACCCAUGUAGAAGGGUAAAGAA [Mat - Exclusion 2 - JL mod - D74] | 264 nM | 62.5 nM
AGCACGUCAGGAUAUACGAACAAAACGGGAGAACUAAAGGGACAUGAGGAUCACCCAUGUAGAAGGGACAAGCA [Diamond 91] | 85.6 nM | 91.1 nM
AUAAGUCGAGGAUAUACGAAAAGCUAGCGAAAGCUAGCGGGACAUGAGGAUCACCCAUGUAGAAGGCGACAAUA [Tetraloop hairpin BlockHead... 61% 5] | 28.4 nM | 57 nM
AAAGAACAUGAGGAUCACCCAUGUGAGGAUAUACGAGCGUGAGAAAGAUAAAACGAGCGUAGAAGGCACAAGAA [JR_Exclusion1_Sub4] | 43.4 nM | 49.3 nM
AAGUAACAUGAGGAUCACCCAUGUGAGGAUAUGAUUUAAGUUGUAAAAGUAAUAAAGGUCAGAAGGUAUGUGAA [Exclusion 1.2] | 30.9 nM | 34.7 nM
CUUAUGUGAGGAUAUCAGUAGUAAAAAAAAAAAAUUACUACUGAGAAGGCACAUGAGGAUCACCCAUGUGCCUU [EX4 323: Super Stable 23] | 14.4 nM | 14.2 nM
AAAAAGUUAGGAUAUACAUGAGGAUCACCCAUGUACACAUAUGGAGAAUAUGGUAGUAGUAGAAGGGACAAAAA [EX2 Malc#15] | 27.1 nM | 31.1 nM
AAAAAUUGAGGAUAUACGUACAUGUCAAAAGACGUGAAGGGACAUGAGGAUCACCCAUGUAGAAGGCGAAAAAA [JL Neck Breaker 12] | 38.8 nM | 13.6 nM
AAAAAGUCAGGAUAUACAGAAAAAAAAACGAAAAAAAAUCUGUAGAAGGGACAUGAGGAUCACCCAUGUUAAAA [Ex 4 May 13] | 41.5 nM | 26.8 nM
GUUGUGCGAGGAUAUAUGUGAGGUUUGCCUCAACAGGUAAUACAUGAGGAUCACCCAUGUAGAAGGCGCAUGAG [S1-(23.6);S2-(22.1) [87C]] | 67.3 nM | 342 nM
CUCUUGUGAGGAUAUUGAAGAAAAGAAAAGAAAGAAAAGAACAAGAAGGCACAUGAGGAUCACCCAUGUAAGAA [EteRNA is fun!] | 24.8 nM | 36.5 nM
AAAAUGUCAGGAUAUGCGAAGGCGUCUGAUAGAAGAGGAUAGCAGAAGGGACAUGAGGAUCACCCAUGUGGAAA [Opal 25] | 72.3 nM | 124 nM
AUAAAACAUGAGGAUCACCCAUGUGAGGAUAUCCAAAAAGAAAGAAAAAAAAAAAAAAGGAGAAGGCACAAUAA [Amethyst 46] | 67.6 nM | 46.7 nM

Sequence | apparent KD of MS2 coat protein (MS2 coat protein [1]) | apparent KD of MS2 coat protein (MS2 coat protein [2])
AAAACGUGAGGAUAUACUAAAAUAAAAAAUUAUGUUAAAAAACAUGAGGAUCACCCAUGUAGAAGGCACAAAAA [AJ 3] | 29.8 nM | 28.6 nM
AAGAAGUGAGGAUAUCGAAGACUGUCGAAAAGACAGUCGAACGAGAAGGCACAUGAGGAUCACCCAUGUGAAAA [Marsurpial 65% 4] | 22.1 nM | 33.1 nM
AAAAAGUAAGGAUAUAUAAAAAUAAAAAAUUAUGAUAAAAAACAUGAGGAUCACCCAUGUAGAAGGUACGAAAA [AJ 2] | 26.2 nM | 25.6 nM
AAGAAACAUGAGGAUCACCCAUGUCAGGAUAUGCAAGACUGACGAAAGUCAGUCAAAAGCAGAAGGGACUAGAA [7-pair stack] | 28 nM | 51.5 nM
AAAAAGUGAGGAUAUGCGCUGUCAAGUAGACACGAGCAGUCGUAGAAGGCACAUGAGGAUCACCCAUGUUCAAA [EX4 Malc#22] | 25.4 nM | 16 nM
AGCAAGUAAGGAUAUGCAAAGUCAGGACACACACUGACGAAGCAGAAGGUACAUGAGGAUCACCCAUGUAAGCA [Mat - Exaclusion 4 - Eli mod - D61] | 25.6 nM | 18 nM
AACAGUACAGGAUAUACAUGAGGAUCACCCAUGUAAAAAAAGGGUGGCGUACCACAAAGUAGAAGGGUACUGGA [Moding Maslow revisited (73) 10] | 109 nM | 44.1 nM
AAAACGUGAGGAUAUGCACCAAAAAAAAAAAAACGGGUACGACAUGAGGAUCACCCAUGUAGAAGGCACGAAAA [Frodo Flailing 7 - Jieux - Exclusion 2] | 56 nM | 39.4 nM
GAAAAACAUGAGGAUCACCCAUGUGAGGAUAUGAACGAAAUAAAAUAAAAAUAAAAGUUCAGAAGGCACAAAAG [Mat - Exclusion 1 - Eli mod - D12] | 34 nM | 69.9 nM
AGCUAGUCAGGAUAUACAUGAAAAAAAAAAAAAAAAAAAAAACAUGAGGAUCACCCAUGUAGAAGGGACUAGCA [Starry Esclusion 2 (jandersonlee round 1 mod)] | 95.6 nM | 98.9 nM
AAAAAGCUAGGAUAUACGAAAAAAAAGGGUAAAAUAAAUAAACAUGAGGAUCACCCAUGUAGAAGGAGCAAAAA [Mat - Exclusion 2 - Tesla mod - D37] | 42.6 nM | 38.3 nM
AGAAAUACAGGAUAUACAUGGGAAAAAAAAAAAAAAAUUCUACAUGAGGAUCACCCAUGUAGAAGGGUAUUUCA [Ex2 Design 170: Random 1] | 48.2 nM | 32 nM
AAAAAACAUGAGGAUCACCCAUGUGAGGAUAUUGGUAUUCAGGAUAUAAUCUCAAUAGCGAGAAGGCGCAUAAA [Brourd 613 Mod 16 - Jieux - Exclusion 1] | 20.9 nM | 18.1 nM
CAGUACUGAGGAUAUACAUGAGGAUCACCCAUGUGGUCAAGCUACGAAAGUAGCAAAAGUAGAAGGCAGUACUG [Ex3: 811] | 209 nM | 34.6 nM
AACAGUACAGGAUAUACAUGAGGAUCACCCAUGUAAAGGGAAUAAAACAAAAAAAAAUGUAGAAGGGUACUGGA [Mat - Exclusion 3 - Eli mod - D66] | 75.1 nM | 110 nM
AAAAAGAAAGGAUAUACGAACAUGUCGAAAGACGUGAAGGGACAUGAGGAUCACCCAUGUAGAAGGUUUAAAAA [Mat - Exclusion 2 - JL mod - D82] | 25.2 nM | 17.9 nM
AAAAAUUGAGGAUAUACGAACAUGUCAAAAGACGUGAAGGGACAUGAGGAUCACCCAUGUAGAAGGCGAAAAAA [JL Loop Breaker 2] | 41.3 nM | 19.7 nM
AAGAAGGGAGGAUAUACAAAAUAAAAGAAAAGAAAGAAAGAACAUGAGGAUCACCCAUGUAGAAGGCCCAAGAA [Iufni] | 22.3 nM | 21.2 nM
AGCUAGUCAGGAUAUACGAACAUGUCAUAAGACGUGAAGGGACAUGAGGAUCACCCAUGUAGAAGGGACUAGCA [74%, Web mod - With 1 more U's] | 36.7 nM | 139 nM
AAAGGACGAGGAUAUACAUGAGGAUCACCCAUGUAAAAAACAUAAUAAAAGAAUUUAUGUAGAAGGCGUCCAAA [69%, Moding Meechl, 1] | 18.1 nM | 17.1 nM
AAAACGGCAGGAUAUACGAUUGGGAACUAGACCGAGGAACCACAUGAGGAUCACCCAUGUAGAAGGGCCAAAAA [Ex2 Malc#15] | 24.2 nM | 96.1 nM
AAGAACCGAGGAUAUACAUGAAAGAAAGAAAAGAAAAGAAAACAUGAGGAUCACCCAUGUAGAAGGCGGAAGAA [EteRNA is fun!] | 27.4 nM | 35.3 nM
